Residue numbers refer to the chain shown, from its start.
B1: F1.83.6 human-murine chimeric antibody (antibody, human IgG1, kappa, V domains shown)
VH: QVQLQQSGPELVKPGASVKISCKASGYAFSSSWMNWVKQRPGKGLEWIGRIYPGDGDTNYNGRFKGKATLTVDKSSSTAYMQLSSLTSEDSAVYFCARGGVFTMALDHWGQGTTLTVSS
VL: DIQMTQSPSSLSASLGGKVTITCKASQDINKYIAWYQHKPGKGPRLLIHYTSTLQPGIPSRFSGSGSGRDYSFSISNLEPEDIATYYCLQYDNLFTFGGGTKLEIKR
B2: F1.42.8 human-murine chimeric antibody (antibody, human IgG1, kappa, V domains shown)
VH: HVQLQQPGAELVKPGASVKLSCKASGYTFTSYWMHWVRQRPGQGLEWIEMIHPNSGSTNYNEKFKSKATLTVDKSSSTAYMQLSSLTSEDSAVYYCARGNYNSSLYAMDYWGQGTSVTVSS
VL: DIQMTQTTSSLSASLGDRVTISCSASQGISNYLNWYQQKPDGTVKLLIYYASNLHSGVPSRFSGSGSGTAYSLTISNLEPEDIATYYCQQYSILPYTFGGGTKLEIKR
B3: F1.92.17 human-murine chimeric antibody (antibody, human IgG1, kappa, V domains shown)
VH: EVQLQQSGPELVKPGASVKMSCKASGYTFTDYNMHWVRQSHGKSLEWIGYINPNNGDTIYNQNFKGKATLTVNKSSSTAYMELRSLTSEDSAVYYCSRTITYYYSMDYWGPGTSVTVSS
VL: QIVLTQSPALMSASPGEKVTMTCSASSSVSYMYWYQQKPRSSPKPWIYLTSNLASGVPARFSGSGSGTSYSLTISSMEAEDAATYYCQQWSSNPLTFGAGTKLELKR
B4: F1.41.17 human-murine chimeric antibody (antibody, human IgG1, kappa, V domains shown)
VH: EVQLVESGGDSVKPGGSLKLSCAASGFTFSSYGMSWVRQTPDKRLEWVATINSGGSYTYYQDSVKGRFTISRDNAKNTLYLQMSSLKSEDTAIYYCVRHHYGSSYDYFDYWGQGTTLTVSS
VL: DIVMTQAAPSVPVMPGESVSISCRSSKSLLHSNGNTHLYWFLQRPGQSPQLLIYRMSNLASGVPDRFSGSGSGTAFTLRISRVEAEDVGVYYCMQHLEYPLTFGAGTKLELKR
B5: F1.2.14 human-murine chimeric antibody (antibody, human IgG1, kappa, V domains shown)
VH: RVQLQQSGAELVKPGASVRMSCKASGYTFTAYSIEWMKQNLGKSLEWIGNFRPYNDDTKYNENFKGRATLTVEKSSATVYLELSRLTSDDSAVYYCARSGPTDYFDYWGQGTTLIVSS
VL: DIQMTQSPASLSASVGETVTITCRASDNIYSYLAWYQQKQGQSPQLLVYNAKTLAEGVPSRFSGSGSVTQFSLKIISLQPEDFGTYYCQHHFGTPRTFGGGTKLEIKR
B6: F1.57.21 human-murine chimeric antibody (antibody, human IgG1, kappa, V domains shown)
VH: QVQLQQSGAELARPGASVKLSCKASGYTFTSYGISWVKQITGQGLEWIGEIYPRSESTYYNEKFKGKATLTADKSSSTAYMELRSLTSEDSAVYFCARDYGNIYSFAYWGQGTLVTVSA
VL: B5 VL with A25T, D27E, Q42K, V68G, I76N, T85S, F92Y, R96L, G100A, I106L
B7: F1.73.9 human-murine chimeric antibody (antibody, human IgG1, kappa, V domains shown)
VH: QVQLKQSGAELVRPGASVKLSCKASGYTFTDYYINWVKQRPGQGLEWIARIYPGSGNTYYNEKFKGKATLTAEKSSSTAYMQFSSLTSEDSAVYFCACSTYYTMDYWGQGTSVTVSS
VL: QIVLTQSPAIMSASLGERVTMTCTASSGVSSSYLHWYQQKPGSSPKLWIYTTSNLASGVPARFSGSGSGTSYSLTISSMEAEDAATYYCHQYHRSPYTFGGGTKLEIKR
B8: F1.21.8 human-murine chimeric antibody (antibody, human IgG1, kappa, V domains shown)
VH: EVQLQQSGPELVKPGASVKISCKTSGFLFTGHYMHWVKSSHGNILDWIGYIYPYNAISFYNQKFKGKATLTVDKSSNTAYMELRSLTSEDSAVYYCARGDYGNYVTAYWGQGTLVTVSA
VL: DVLMTQTPLSLPVSLGDQASISCRSSQSIVHSSGNTYLEWYLQKPGQSPKLLIYKVSNRFSGVPDRFSGSGSGTDFTLKISRVEAEDLGVYYCFQGSHLPWTFGGGTKLDIKR
B9: F1.78.24 human-murine chimeric antibody (antibody, human IgG1, kappa, V domains shown)
VH: QVQLQQSGAELVKPGASVKMSCKASGYTFTTYPIEWMKQNHGKSLEWIGNFHPYNDDTNYNVKFKGKATLTVEKSSSTVYLELSRLTSDDSALYYCARRREYYGSFDVWGTGTTVTVSS
VL: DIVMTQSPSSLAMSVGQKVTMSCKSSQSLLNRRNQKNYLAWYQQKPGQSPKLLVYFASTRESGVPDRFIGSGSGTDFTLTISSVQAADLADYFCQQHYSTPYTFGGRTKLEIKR
B10: hAb006LH2L1b (antibody, human IgG1, V domains shown)
VH: EVQLVQSGAEVKKPGSSVKVSCKASGYTFTDYEIHWVRQAPGQGLEWMGAIDPKTGNTAYNQKFMGRVTITADKSTSTAYMELSSLRSEDTAVYYCTRYFSFAYWGQGTLVTVSS
VL: DIVMTQTPLSLPVTPGEPASISCRSSQTFVHSNANTYLQWYLQKPGQSPQLLIYKVSNRFSGVPDRFSGSGSGTDFTLKISRVEAEDVGVYYCFQGSHVPYTFGQGTKLEIK
notes: Humanized F3.38.7
B11: hAb007LH2L1b (antibody, human IgG1, V domains shown)
VH: B10 VH with I34M, A50T, K54E, M65K, Y99P, F100Y, F102L, A103T
VL: B10 VL with T28S, A34R, N35D
notes: Humanized F3.81.19
B12: hAb007LH1L1 (antibody, human IgG1, V domains shown)
VH: B10 VH with T30S, I34M, A50T, K54E, M65K, Y99P, F100Y, F102L, A103T
VL: B10 VL with T28S, A34G, N35D
notes: Humanized F3.81.19
B13: hAb007LH1L1c (antibody, human IgG1, V domains shown)
VH: B10 VH with T30S, I34M, A50T, K54E, M65K, Y99P, F100Y, F102L, A103T
VL: B10 VL with T28S, N35D
notes: Humanized F3.81.19
B14: hAb006LH3L1c (antibody, human IgG1, V domains shown)
VH: B10 VH with I70L
VL: B10 VL with A34R
notes: Humanized F3.38.7
B15: hAb006LH3L1b (antibody, human IgG1, V domains shown)
VH: B10 VH with I70L
VL: B10 VL
notes: Humanized F3.38.7
B16: hAb007LH1L1b (antibody, human IgG1, V domains shown)
VH: B10 VH with T30S, I34M, A50T, K54E, M65K, Y99P, F100Y, F102L, A103T
VL: B10 VL with T28S, A34R, N35D
notes: Humanized F3.81.19

biological target: T1, human GPC3-His protein (human, UniProt P51654 25-559); assay: ELISA, coated human GPC3, antibody 0.001 nM
T1 construct: Bought protein; also called human GPC3 protein; not shown: His tag

| OD450 nm [OD450] | Binder |
| --- | --- |
| 0.1 | B1 |
| 0.13 | B2 |
| 0.09 | B3 |
| 0.11 | B4 |
| 0.1 | B5 |
| 0.11 | B6 |
| 0.11 | B7 |
| 0.12 | B8 |
| 0.12 | B9 |

biological target: T1, human GPC3-His protein; assay: ELISA, coated human GPC3, antibody 0.1 nM;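 further: antigen coated on 96-well plates at 1 µg/mL, antibody bound 2 h at 37 °C, detected with HRP-labeled secondary antibody and TMB substrate, acid-stopped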
Method: (§1) The specific method is described as follows: The antigen protein was diluted with PBS to a final concentration of 1 μg/mL, and the diluent was added to a 96-well ELISA plate at 50 μL/well. The plate was sealed with a plastic film and incubated at 4° C. overnight, washed twice with PBS the next day, and a blocking solution [PBS+2% (w/w) BSA] was added for blocking at room temperature for 2 h. […] After incubation at 37° C. for 2 h, the plate was washed 3 times with PBS. A horseradish peroxidase (HRP)-labeled secondary antibody (purchased from Merck, Cat. No. AP113P) was added for incubation at 37° C. for 1 h, and the plate was washed 5 times with PBS. A TMB substrate was added at 50 μL/well for incubation at room temperature for 10 min, then a stop solution (1.0M HCl) was added at 50 μL/well. An ELISA plate reader (Multimode Plate Reader, EnSight, purchased from Perkin Elmer) was used to read OD_{450 nm} values, with results as shown in Table 4 to Table 6, FIG. 1A, FIG. 1B, and FIG. 1C.

| OD450 nm [OD450] | Binder |
| --- | --- |
| 0.4 | B1 |
| 1.22 | B2 |
| 0.25 | B3 |
| 0.97 | B4 |
| 0.61 | B5 |
| 0.8 | B6 |
| 0.86 | B7 |
| 0.9 | B8 |
| 0.66 | B9 |

biological target: T2, human GPC3 on CHO-K1-human GPC3 cells (clone CHOK1-hGPC3.2B5) (human, UniProt P51654 25-554); assay: FACS on CHOK1-hGPC3.2B5 cells;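 further: flow cytometry binding of chimeric antibodies to the cells, read out as mean fluorescence intensity, with the half-maximal concentration derived by curve fitting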
T2 construct: whole, on cells; Stably transfected CHO-K1 clone 2B5

| EC50 [nM] | Max MFI [MFI] | Binder |
| --- | --- | --- |
| 1.1 | 10100 | B1 |
| 0.4 | 9420 | B2 |
| 2.04 | 9600 | B3 |
| 0.55 | 9930 | B4 |
| 1.67 | 8280 | B5 |
| 1.36 | 9360 | B6 |
| 0.66 | 8850 | B7 |
| 0.68 | 10700 | B8 |
| 0.76 | 10400 | B9 |

biological target: T1, human GPC3-His protein; assay: ELISA, coated human GPC3, antibody 1 nM;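 further: antigen coated at 1 µg/mL on 96-well plates, antibody bound for 2 h at 37 °C, detected with HRP-labeled secondary antibody and TMB, absorbance read at 450 nm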
Method: as §1

| OD450 nm [OD450] | Binder |
| --- | --- |
| 0.83 | B1 |
| 2.02 | B2 |
| 0.68 | B3 |
| 1.68 | B4 |
| 1.24 | B5 |
| 1.5 | B6 |
| 1.33 | B7 |
| 1.71 | B8 |
| 0.72 | B9 |

biological target: T1, human GPC3-His protein; assay: ELISA, coated human GPC3, antibody 100 nM;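 further: antibodies bound to antigen-coated 96-well plates (1 µg/mL), 2 h at 37 °C, detected with HRP-labelled secondary antibody and TMB substrate, absorbance read at 450 nm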
Method: as §1

| OD450 nm [OD450] | Binder |
| --- | --- |
| 0.76 | B1 |
| 2.56 | B2 |
| 0.66 | B3 |
| 1.51 | B4 |
| 1.84 | B5 |
| 2.35 | B6 |
| 1.46 | B7 |
| 2 | B8 |
| 0.45 | B9 |

biological target: T3, GPC3 endogenously expressed on HepG2 cells (UniProt P51654 25-554); assay: FACS on HepG2 cells;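 further: flow cytometric binding of chimeric antibodies to cells, read as mean fluorescence intensity, EC50 obtained by curve fitting of the MFI data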
T3 construct: whole, on cells
Method: The desired cells were expanded to a logarithmic growth phase in a T-75 cell culture flask, the medium was removed by pipetting, and the cells were washed twice with a PBS buffer, and digested with trypsin. Then a complete medium was added to stop the digestion, and the cells were blown into a single cell suspension. After counting, the cells were centrifuged, and the cell pellet was resuspended with an FACS buffer (PBS+2% fetal bovine serum) to 2×10⁶ cells/mL. The cell resuspension solution was added to a 96-well FACS reaction plate at 50 μl/well, and a chimeric antibody sample to be tested was added at 50 μl/well for incubation at 4° C. for 1 h. […] After the plate was centrifuged and washed 3 times with a PBS buffer, 100 μl of the resulting solution was assayed and analyzed by FACS (FACS Canto™, purchased from BD Biosciences). Data analysis was performed by software (FlowJo) to obtain the mean fluorescence intensity (MFI) of the cells. Then, analysis was performed by software (GraphPad Prism8), data were fitted, and EC₅₀ values were calculated.

| EC50 [nM] | Max MFI [MFI] | Binder |
| --- | --- | --- |
| 0.87 | 2340 | B1 |
| 0.21 | 2090 | B2 |
| 2.9 | 2300 | B3 |
| 0.2 | 1990 | B4 |
| 2.13 | 1860 | B5 |
| 0.71 | 1650 | B6 |
| 0.25 | 1880 | B7 |
| 0.36 | 2190 | B8 |
| 0.31 | 2120 | B9 |

biological target: T4, monkey GPC3 on HEK293T-monkey GPC3 cells (monkey); assay: FACS on HEK293T-monkey GPC3 cells
T4 construct: whole, on cells

| EC50 [nM] | Max MFI [MFI] | Binder |
| --- | --- | --- |
| 1.83 | 31500 | B10 |
| 13.2 | 35800 | B11 |
| 4.1 | 36300 | B12 |
| 8.8 | 73600 | B13 |
| 4.06 | 91600 | B14 |
| 1.78 | 32500 | B15 |
| 12.4 | 35400 | B16 |

biological target: T5, human GPC3-His protein (human, UniProt P51654 25-559, limits assumed); assay: SPR, antibody captured on Protein A chip, human GPC3-His injected, 1:1 Langmuir model;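 further: flow cell at 25 °C, antigen injected for 240 s at five twofold dilutions starting at 200 nM, dissociation followed up to 600 s, double-referenced sensorgrams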
T5 construct: also called human GPC3 protein; not shown: His tag

| Kd [nM] | koff [s⁻¹] | kon [M⁻¹ s⁻¹] | Binder |
| --- | --- | --- | --- |
| 9.28 | 0.00128 | 138000 | B10 |
| 3.58 | 0.000315 | 88000 | B11 |
| 1.05 | 0.000114 | 109000 | B12 |
| 4.28 | 0.000397 | 92700 | B13 |
| 3.15 | 0.001 | 319000 | B14 |
| 8.4 | 0.00136 | 162000 | B15 |
| 2.21 | 0.000228 | 103000 | B16 |

biological target: T1, human GPC3-His protein; assay: ELISA, coated human GPC3, antibody 10 nM;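 further: plate coated with antigen at 1 µg/mL, antibodies bound 2 h at 37 °C, detected via HRP-conjugated secondary antibody and TMB substrate, absorbance read after acid stop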

| OD450 nm [OD450] | Binder |
| --- | --- |
| 1.19 | B1 |
| 2.31 | B2 |
| 1.19 | B3 |
| 1.59 | B4 |
| 1.47 | B5 |
| 2.02 | B6 |
| 1.74 | B7 |
| 1.7 | B8 |
| 1.07 | B9 |

biological target: T1, human GPC3-His protein; assay: ELISA, coated human GPC3, antibody 0.01 nM;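 further: Plate-bound antigen coated at 1 µg/mL, antibody incubated 2 h at 37 °C, binding detected by HRP-conjugated secondary antibody with TMB substrate, read as absorbance at 450 nm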

| OD450 nm [OD450] | Binder |
| --- | --- |
| 0.17 | B1 |
| 0.3 | B2 |
| 0.11 | B3 |
| 0.24 | B4 |
| 0.17 | B5 |
| 0.21 | B6 |
| 0.23 | B7 |
| 0.25 | B8 |
| 0.19 | B9 |

biological target: T1, human GPC3-His protein; assay: ELISA, coated human GPC3, antibody 0.0001 nM

| OD450 nm [OD450] | Binder |
| --- | --- |
| 0.08 | B1 |
| 0.1 | B2 |
| 0.08 | B3 |
| 0.08 | B4 |
| 0.08 | B5 |
| 0.08 | B6 |
| 0.09 | B7 |
| 0.08 | B8 |
| 0.09 | B9 |

Reference: patent publication US20260116991A1 (HAINAN SIMCERE ZAIMING PHARMACEUTICAL, published 2026)
